{
  "source": "patent US20080286287A1",
  "about": "(MURDOCH CHILDRENS RESEARCH INSTITUTE, published 2008)",
  "binders": {"B1": {"name": "HBD-IGFBP-2 mutant (179PKKLRP184 mutated to 179PNNLAP184) (other)", "chain": "EVLFRCPPCTPERLAACGPPPVAPPAAVAAVAGGARMPCAELVREPGCGCCSVCARLEGEACGVYTPRCGQGLRCYPHPGSELPLQALVMGEGTCEKRRDAEYGASPEQVADNGDDHSEGGLVENHVDSTMNMLGGGGSAGRKPLKSGMKELAVFREKVTEQHRQMGKGGKHHLGLEEPNNLAPPPARTPCQQELDQVLERISTMRLPDERGPLEHLYSLHIPNCDKHGLYNLKQCKMSLNGQRGECWCVNPNTGKLIQGAPTIRGDPECHLFYNEQQEARGVHTQRMQ", "notes": "Positions are as printed; also called HBD modified IGFBP-2; PCS3"}},
  "key": {"IGF-II": {"target": "T1, IGF-II (UniProt P01344 25-91)", "T1 construct": "also called unlabeled IGF-II", "T1 sequence (P01344 25-91 limits assumed)": "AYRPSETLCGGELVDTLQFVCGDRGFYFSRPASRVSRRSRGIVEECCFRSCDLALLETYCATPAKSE", "test": "competitive radioligand binding in solution (125I-IGF-II vs unlabeled IGF-II), immunoprecipitation with anti-IGFBP-2, one-site fit", "description": "(§1) Table 4 tabulates data showing the effect of mutagenesis on the affinity of IGFBP-2 for the IGFs. The HBD, ₁₇₉PKKLRP₁₈₄, was mutated to ₁₇₉PNNLAP₁₈₄ and the ₂₆₅RGD₂₆₇ domain was mutated to ₂₆₅RGE₂₆₇. Native and mutant IGFBP-2 were purified by IGF-I affinity chromatography and quantified by an IGFBP-2 ELISA or radioimmuno assay (RIA) as described in the Examples. IGF binding affinities of the modified IGFBP-2 mutants were similar to those of native IGFBP-2.\n(§2) The impact of these exemplary mutations in IGFBP-2 were tested to see if they affected IGF binding affinity. Native, HBD and RGD-IGFBP-2 (all 2.5 ng) were incubated with either ¹²⁵I-IGF-I or -II (15,000 cpm) in the presence of increasing concentrations of unlabeled IGF-I or -II (0.0025-0.15 nM). Binding was for 2 h at room temperature in 100 μl binding buffer [BB; 50 mM sodium phosphate pH 7.4, 0.1 M NaCl, 0.05% (w/v) NaN3, 0.2% fatty acid free BSA (Sigma, Steinheim, Germany), 0.1% (v/v) Triton X-100]. […] Bound radioactivity in precipitates was quantified in a γ-counter. Each point was measured in quadruplicate. […]"}, "Human-IGF-I": {"target": "T2, Human-IGF-I (human, UniProt P05019 49-118)", "T2 construct": "also called IGF-1", "T2 sequence (P05019 49-118 limits assumed)": "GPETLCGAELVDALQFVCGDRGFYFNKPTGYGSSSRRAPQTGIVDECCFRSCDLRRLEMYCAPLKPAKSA", "test": "competitive radioligand binding in solution (125I-IGF-I vs unlabeled IGF-I), immunoprecipitation with anti-IGFBP-2, one-site fit", "description": "as §1, §2"}},
  "data": [
    {"binder": "B1", "values": [
      {"measurement": "Kd", "setting": "IGF-II", "result": 0.52, "unit": "nM"},
      {"measurement": "Kd", "setting": "Human-IGF-I", "result": 1.45, "unit": "nM"}
    ]}
  ]
}
